Here are results for 4 proteins from article PMC4031664 (Prion, 2013).

The data set “native gel or EMSA” deals with the molecule itself. The data set is described as follows: native gel or EMSA. Background: In EMSA bound probe runs differently from free probe, usually more slowly.
Data set [1] deals with the molecule itself.

B1: C-terminal PrP domain (mouse PrP 120–231) (domain or fragment)
chain: not shown
As to B1, the binding result in the data set “native gel or EMSA” is “binds”.

B2: Syrian hamster PrP90–232 (domain or fragment)
chain: not shown
B2: the binding result in “native gel or EMSA” is “binds”.

B3: PrP-like ectodomain of ZIP5 (domain or fragment)
chain: WVGGSVPNLGPAEQEQNHYLAQLFGLYGENGTLTAGGLARLLHSLGLGRVQGLRLGHHEPPTGRAAPTSGDNFTHRLQEPELSVDIWAGMPLGPSGWGDQEESKAPDLHGSGPSSLDLFQRLLLLDHSLADHLNEDCLNGSQLLVNFGLSPVAPLTPRQFALLCPALLYQIDSRVCIKTPAPAPPGDVLSA
The stoichiometry N is a count of units in the complex or per binding partner. Take B3: the “stoichiometry N” value in data set [1] came to 2.

B4: full-length PrP (mouse PrP 23–231) (natural protein)
chain: not shown
For B4, in the data set “native gel or EMSA”, the binding result is recorded as “binds”.
